Consider one molecule from US20210032294A1, “MODIFIED PlySs2 LYSINS AND USES THEREOF” (CONTRAFECT CORPORATION, priority 2018, published 2021).

Data set [1] in a line: Toxicity screening in mice. Type of data set: in vivo. The following applies: 30 mg/kg. On the procedure: Selected modified lysin polypeptides from Table 3 were subjected to further testing as described in more detail in subsequent Examples. […] The same 30 mg/kg dose of PlySs2 caused a 100% incidence of adventitial findings, which is an indication of potential toxicity.

The subject of data set [2] is 5 MRSA strains and 5 MSSA strains. Nature of the data set: Checkerboard synergy assay with daptomycin or vancomycin. Type of data set: cell-based, Staphylococcus aureus. The following applies: MRSA (JMI-41293) strain.

“Also recorded” adds a separate entry of the source.

B1: pp296: Modified PlySs2 lysin, SEQ ID NO: 6: L92W, V104S, V128T, Y137S, Y164K, N184D, S198Q (protein)
chain: MTTVNEALNNVRAQVGSGVSVGNGECYALASWYERMISPDATVGLGAGVGWVSGAIGDTISAKNIGSSYNWQANGWTVSTSGPFKAGQIVTWGATPGNPYGHVSIVEAVDGDRLTILEQNYGGKRYPTRNYYSAASSRQQVVHYITPPGTVAQSAPNLAGSRSKRETGTMTVTVDALNVRRAPDTSGEIVAVYKRGEQFDYDTAIIDVNGYAWVSYIGGSGKRNYVATGATKDGKRFGNAWGTFK
For B1, the “Adventitial findings (lesions)” value in data set [1] is “no adventitial findings; also recorded: did not result in adventitial lesions”. Besides, the FIC index in data set [2] amounted to 0.75.
